Test results from patent US20190262368A1.

What was measured:
[1] = biological target: recombinant human LOX1 (R&D Systems) (human) (UniProt P78380); test: row label missing; by the order of Table 5 taken as CRP/hLOX1 competition (plate assay, biotin CRP as competitor, immobilised recombinant hLOX1), Mean
[2] = biological target: human LOX1 on cells (human LOX1 transfected CHO TREX cells; endogenous on HAECs) (human) (UniProt P78380); test: cell-based or functional assay
[3] = biological target: human LOX1 SNP K167N variant on transfected CHO TREX cells (human) (UniProt P78380); test: row label missing; by the order of Table 5 taken as oxLDL/K167N hLOX1 CHO competition (FMAT, DyLight 649 oxLDL as competitor), Mean
[4] = biological target: human LOX1 on cells (human LOX1 transfected CHO TREX cells; endogenous on HAECs) (human) (UniProt P78380); test: row label missing; by the order of Table 5 taken as AGE BSA/hLOX1 CHO competition (FMAT, DyLight 649 AGE-BSA as competitor), Mean
[5] = biological target: human LOX1 on cells (human LOX1 transfected CHO TREX cells; endogenous on HAECs) (human) (UniProt P78380); test: row label missing; by the order of Table 5 taken as oxLDL/hLOX1 CHO competition (FMAT, DyLight 649 oxLDL as competitor), Mean

IC50 [1]: 11.1 nM | IC50 (Mean) of oxLDL internalisation in hLOX1 CHO cells; row label missing, taken by the order of Table 5 [2]: 2.85 nM | IC50 (Mean) of oxLDL-dependent ROS generation in hLOX1 CHO cells; row label missing, taken by the order of Table 5 [2]: 10.1 nM | IC50 [3]: 1.31 nM | IC50 [4]: 1.15 nM | IC50 [5]: 2.2 nM
Substance: 23C11, commercially available mouse anti-LOX-1 antibody
